Data on 30 molecules can be found in paper PMC7278562, “A high‐affinity, bivalent PDZ domain inhibitor complexes PICK1 to alleviate neuropathic pain” (EMBO Molecular Medicine, 2020).

Ends that are not written are not given here. Peptide text beside a SMILES is read from it. * marks the point of attachment. 3‑phenylpropyl = c1ccc(CCC*)cc1; Cyclohexylmethyl = C1CCC(C*)CC1; Bn = c1ccc(C*)cc1 Where only a bound is given, the exact number is not on record here.

As a reminder, the Ki is a dissociation constant, usually derived from enzyme kinetics or from competition with a known ligand. As usually defined, the amount remaining is the share of the starting amount still present when the sample was taken. For orientation: Kd means the free concentration of one partner at which half of the binding sites on the other are occupied at equilibrium, for simple one-to-one binding. High values mean weaker binding, low ones tighter binding.

The target in series [1] is T1, PICK1 (Rattus norvegicus, UniProt Q9EP80).
T1 construct: GST (inferred from pET41 and Glutathione-Sepharose capture) (cleaved yes); made in house; host or cells: Escherichia coli BL21-DE3-pLysS
The conditions noted are these: best-known binder of the PICK1 PDZ domain; ref Madsen et al, 2005; cited from earlier work. An excerpt: To this end, we took advantage of a fluorescence polarization (FP) competition assay using a fluorescent tracer peptide corresponding to the C‐terminal 11 residues of the DAT (OrG‐C11) (Fig EV1A).

Series [2] deals with mechanical allodynia in SNI mice. Nature of the series: Spared nerve injury (SNI) model, von Frey paw withdrawal threshold. It counts as in vivo.
The target of series [3] is T1, PICK1. Nature of the series: FP saturation binding. The conditions noted are these: Appendix Fig S2, n = 3. On the procedure: Protein expression was induced with 1 mM IPTG and grown overnight at 20°C. […] 1 l culture at pH 7.4. Suspended pellet was frozen at −80°C. The bacterial suspension was thawed and cleared by centrifugation (F20 rotor, 36,000 × g for 30 min at 4°C). The supernatant was collected and incubated with Glutathione‐Sepharose 4B beads (GE Healthcare) for 2 h at 4°C under gentle rotation. […] Washed beads were transferred to a PD10 gravity column and were washed additionally three times. Bead solution was incubated with thrombin overnight at 4°C under gentle rotation.
The data were plotted using GraphPad Prism 8.3 and fitted to either a sigmoidal dose response for saturation experiments or One site competition for competition experiments. Kis were automatically calculated using the Cheng–Prusoff equation.

For series [4] the following is noted: 20 μM i.t.; for presence in spinal cord after i.t. injection: naïve mice, 1 h after injection, fluorescence. On the procedure:
All spinal cords were isolated by hydraulic extrusion and post‐fixed in PFA 4% for 8 h. Spinal cords were subsequently cryoprotected in 30% sucrose, embedded in Tissue‐Tek® OCT, and sliced at 20 μm thickness by Cryostat Leica CM3050 S.
Epifluorescence microscopy was performed using a Zeiss axioscan.Z1, with a plan‐apochromat 10×/0.45 objective (Carl Zeiss). […] All channels were imaged covering a total of around 6 μm of the 20‐μm‐thick spinal cord slices.

A further series concerns hippocampal neurons. Nature of the series: Membrane permeability in dissociated hippocampal neurons (confocal, DiO membrane dye). The conditions noted are these: 21 DIV neurons, 1 h, 37°C, 5 μM TMR-labeled peptide (legend: TMR-C5 20 μM), confocal fluorescence.
A short description of another series: Plasma stability. It counts as in vitro ADME. As to conditions: human plasma (3H biomedical) with 2% DMSO, 50 μM peptide, 37°C, GnHCl/TCA-acetone work-up, C8 RP-HPLC (UPLC), normalized to T = 0, mean, n ≥ 3, read-out: peptide remaining after incubation with human plasma. On the procedure: The peptides were dissolved to a final concentration of 50 μM in human plasma (3H biomedical, Uppsala, Sweden) containing 2% DMSO and incubated at 37°C. Aliquots (45 μl) were added directly to 26 mg guanidine hydrochloride (GnHCl), vortexed, and incubated for 2 min. 90 μl of 10% trichloroacetic acid (TCA) in acetone was then added, and the suspension was incubated at 5°C for 24 h.
The suspension was centrifuged at 18,000 g for 5 min. The supernatants were quantified by analytical C8 RP‐HPLC and normalized to the compound concentration at T = 0. Ligand recovery was > 82%.

The target of series [5] is PICK1 (protein interacting with C kinase 1), purified recombinant rat (rat) (UniProt Q9EP80). Nature of the series: fluorescence polarisation; competition (Ki with SEM interval); tracer and conditions not stated. For orientation: Fluorescence polarisation rises when a labelled molecule tumbles more slowly, as on binding a larger partner.
The target in series [6] is PICK1 (protein interacting with C kinase) (rat) (UniProt Q9EP80). The experiment in a line: fluorescence polarisation; competition; fixed PICK1 and a fluorescent tracer (not named for this series) against increasing unlabeled peptide; 20 min on ice; Ki by Cheng-Prusoff.
For series [7], the target named is OrG-C11, Oregon Green labelled C-terminal 11 residues of the dopamine transporter. The experiment in a line: fluorescence polarisation; saturation; fluorescent peptide fixed at 20 nM, increasing PICK1; 0.01% Triton X-100 (PICK1 a dimer); KD from a log dose-response fit.
In series [8] the target is Org-GluA2 C11, Oregon Green labelled C-terminal 11 residues of GluA2. Described as above.
Series [9] deals with DAT C13 C-terminal 13 residues (Homo sapiens) (UniProt Q01959). As to conditions: cited from earlier work.
The target of series [10] is PICK1 (protein interacting with C kinase) (rat) (UniProt Q9EP80). Nature of the series: fluorescence polarisation.
Series [11] shares this target. Nature of the series: fluorescence polarisation. The source holds these as a separate data set.
Series [12] has the same target. The experiment in a line: SEC; analytical SEC of purified PICK1 (40 uM in the titration) alone or incubated with peptide; absorbance at 280 nm and, for the TMR peptide, 544/546 nm.

Chain of PICK1 PDZ (Q9NRD5 19-108): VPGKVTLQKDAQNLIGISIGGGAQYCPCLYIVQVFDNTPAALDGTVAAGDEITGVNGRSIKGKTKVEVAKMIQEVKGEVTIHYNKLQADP

Take `CC(C)C[C@H](NC(=O)[C@H](Cc1c[nH]c2ccccc12)NC(=O)[C@H](Cc1c[nH]cn1)NC(=O)[C@H](CCCNC(=N)N)NC(=O)[C@H](CC(C)C)NC(=O)[C@@H](NC(=O)[C@H](Cc1ccccc1)NC(=O)[C@H](CCC(N)=O)NC(=O)[C@H](CCCNC(=N)N)NC(=O)[C@@H](NC(=O)[C@@H](N)CCC(=O)O)C(C)C)[C@@H](C)O)C(=O)N[C@@H](CCCCN)C(=O)N[C@H](C(=O)O)C(C)C` [DAT C13] (H-EVRQFTLRHWLKV-OH): the Ki on PICK1 [1] was 1 µM. Take `CCOC(=O)NC(=O)/C(C#N)=C/c1ccc(Cl)c(Cl)c1` [FSC231]: in series [2] (i.t. 20 μM, initiation stage (2 days after injury), n = 8 mice/group), the “effect on PWT / ipsilateral paw hypersensitivity” value was “did not significantly change PWT”. As for `CC(C)C[C@H](NC(=O)[C@H](Cc1c[nH]c2ccccc12)NC(=O)[C@H](Cc1c[nH]cn1)NC(=O)CCOCCOCCN(CCOCCOCCC(=O)N[C@@H](Cc1c[nH]cn1)C(=O)N[C@@H](Cc1c[nH]c2ccccc12)C(=O)N[C@@H](CC(C)C)C(=O)N[C@@H](CCCCN)C(=O)N[C@H](C(=O)O)C(C)C)C(=O)[C@H](CCCNC(=N)N)NC(=O)[C@H](CCCNC(=N)N)NC(=O)[C@H](CCCNC(=N)N)NC(=O)[C@H](CCC(N)=O)NC(=O)[C@H](CCCNC(=N)N)NC(=O)[C@H](CCCNC(=N)N)NC(=O)[C@H](CCCCN)NC(=O)[C@H](CCCCN)NC(=O)[C@H](CCCNC(=N)N)NC(=O)CNC(=O)[C@H](Cc1ccc(O)cc1)NC(=O)c1ccc2c(c1)C(=O)OC21c2ccc(N(C)C)cc2Oc2cc(N(C)C)ccc21)C(=O)N[C@@H](CCCCN)C(=O)N[C@H](C(=O)O)C(C)C` [TMR-Tat-P4-(C5)2], the “affinity from saturation binding curves” value on PICK1 [3] is on record as “low nanomolar affinity”. The “time of maximal accumulation in cells” value in series [4] (SNI mice, time points 0, 30, 60, 120 min) stood at 60 min. The “cell type of peptide signal in gray matter” value in [4] (SNI mice, NeuN and GFAP staining) is “exclusively confined toward neurons”. Besides, the “presence in spinal cord after i.t. injection” value in [4] was “clearly visible in both the ventral and dorsal parts of the spinal cord”. Also, the “membrane penetration / labeling of neurons” value in the series on hippocampal neurons was “labeled neurons”.

On to `CC(C)C[C@H](NC(=O)[C@H](Cc1c[nH]c2ccccc12)NC(=O)[C@H](Cc1cnc[nH]1)NC(=O)[C@H](CCCNC(=N)N)NC(=O)[C@H](CCCNC(=N)N)NC(=O)[C@H](CCCNC(=N)N)NC(=O)[C@H](CCC(N)=O)NC(=O)[C@H](CCCNC(=N)N)NC(=O)[C@H](CCCNC(=N)N)NC(=O)[C@H](CCCCN)NC(=O)[C@H](CCCCN)NC(=O)[C@H](CCCNC(=N)N)NC(=O)CNC(=O)[C@@H](N)Cc1ccc(O)cc1)C(=O)N[C@@H](CCCCN)C(=O)N[C@H](C(=O)O)C(C)C` [Tat-C5], for which the share remaining at 24 h, 50 μM in the series “Plasma stability” is roughly 5%. Take `NCC1(CC(=O)O)CCCCC1` [gabapentin]: in series [2] (i.p. 30 mg/kg, chronic phase, n = 4 per gender), the “efficacy 14 days after nerve injury” value is “comparable efficacy”. Moreover, the ipsilateral paw threshold result in series [2] (i.p. 30 mg/kg, initiation stage (2 days after injury), at 1, 2, 3 h, n = 4 mice) was “full recovery”.

Take DAT C3 peptide, N-acetylated, R = COCH3: the inhibition constant Ki in series [5] was found to be 3.8 µM.

DAT C3 peptide, N-alkylated, R = CH3: the inhibition constant Ki in series [5] was found to be 9.38 µM. Same read-out and setting: as for “DAT C3 peptide, N-alkylated, R drawn (cyclohexylmethyl)”, the figure is 6.82 µM; as for DAT C3 peptide, no modification, 4.1 µM. As for P4‐(C5)2 (peptide), the inhibitory constant (Ki) in series [6] is 0.098 µM. On the same count and under the same terms, the same measure for P28‐(C5)2 (peptide): 0.593 µM. PEG0‐(HWLKV)2 (peptide) returned a fold increase in affinity over C5 in series [6] greater than 10 fold.

In [6], PEG8‐(HWLKV)2 (peptide) displayed a fold increase in affinity over C5 greater than 10 fold. The same measure, in the same setting: the same measure for PEG12‐(HWLKV)2 (peptide): greater than 10 fold. Consider “PICK1 (protein interacting with C kinase 1), purified recombinant rat (from UniProt Q9EP80 1-416) (natural protein)”, for which the Kd in series [7] was determined as 0.44 µM; in series [8], 1.53 µM. With PICK1 PDZ (from UniProt Q9NRD5), the Ki in series [9] is 1 µM. In the case of TMR‐Ahx‐YGRKKRRQRRR‐HWLKV [TMR-Tat-C5], the “presence in spinal cord after i.t. injection” value in series [4] was “clearly visible in both the ventral and dorsal parts of the spinal cord”. In [10], Tat‐P4‐(C5)2 (peptide) gave a Ki of 0.0062 µM and a fold affinity gain over C5 greater than 300 fold. This molecule gave a Ki in series [11] of 0.0017 µM. In series [12], this molecule showed a stoichiometry N (Tat‐P4‐(C5)2 per PICK1) of 0.25.

Turning to Bn-WLKV [DAT C4 peptide, N-alkylated, R drawn (benzyl)], in series [5], the inhibition constant (Ki) is 24.5 µM. Still for that read-out and setting: the same measure for {n‑propyl}-WLKV [DAT C4 peptide, N-alkylated, R = (CH2)2CH3]: 46.6 µM; for {2‑cyclohexylethyl}-WLKV [DAT C4 peptide, N-alkylated, R drawn (2-cyclohexylethyl)]: 31.8 µM. As for Et-WLKV [DAT C4 peptide, N-alkylated, R = CH2CH3], the Ki in [5] stood at 30 µM. Still for that read-out and setting: as for Ac-WLKV [DAT C4 peptide, N-acetylated, R = COCH3], the figure is 3.49 µM; as for WLKV [DAT C4 peptide, no modification], 5.69 µM. Same read-out and setting: as for {2‑(naphthyl)ethyl}-WLKV (not fully specified) [DAT C4 peptide, N-alkylated, R drawn (2-naphthylethyl)], the figure is 48 µM; as for {3‑phenylpropyl}-WLKV [DAT C4 peptide, N-alkylated, R drawn (3-phenylpropyl)], 38.6 µM; as for methyl-WLKV [DAT C4 peptide, N-alkylated, R = CH3], 18.8 µM. Regarding {n‑butyl}-WLKV [DAT C4 peptide, N-alkylated, R = (CH2)3CH3], the Ki in [5] turned out to be 45.3 µM. On the same count and under the same terms, as for Cyclohexylmethyl-WLKV [DAT C4 peptide, N-alkylated, R drawn (cyclohexylmethyl)], the figure is 15.1 µM; as for {2‑phenylethyl}-WLKV [DAT C4 peptide, N-alkylated, R drawn (2-phenylethyl)], 26.2 µM.
